According to paper PMC4227749:

Test system: AgrA L171A (Staphylococcus aureus SH1000)
Experiment: EMSA
Conditions: EMSA: 10 mM HEPES pH 7.6, 50 mM KCl, 1 mM EDTA, 2 mM DTT, 0.5% Triton X-100, 5% glycerol, 37 C; 1 uM AgrA (pre-incubated at 3 uM with 50 mM acetyl phosphate …)

agr operon intergenic region P2-P3 probe
binding signal (% of wild-type binding): 50
